Paper PMC9482650, “Quantitative fragmentomics allow affinity mapping of interactomes” (Nature Communications, 2022)

B1: CRTAP (protein, UniProt O75718 27-401, looked up)
Cartilage-associated protein: QYERYSFRSFPRDELMPLESAYRHALDKYSGEHWAESVGYLEISLRLHRLLRDSEAFCHRNCSAAPQPEPAAGLASYPELRLFGGLLRRAHCLKRCKQGLPAFRQSQPSREVLADFQRREPYKFLQFAYFKANNLPKAIAAAHTFLLKHPDDEMMKRNMAYYKSLPGAEDYIKDLETKSYESLFIRAVRAYNGENWRTSITDMELALPDFFKAFYECLAACEGSREIKDFKDFYLSIADHYVEVLECKIQCEENLTPVIGGYPVEKFVATMYHYLQFAYYKLNDLKNAAPCAVSYLLFDQNDKVMQQNLVYYQYHRDTWGLSDEHFQPRPEAVQFFNVTTLQKELYDFAKENIMDDDEGEVVEYVDDLLELEETS
B2: FERMT2 (protein, UniProt Q96AC1 1-680, looked up)
Fermitin family homolog 2: MALDGIRMPDGCYADGTWELSVHVTDLNRDVTLRVTGEVHIGGVMLKLVEKLDVKKDWSDHALWWEKKRTWLLKTHWTLDKYGIQADAKLQFTPQHKLLRLQLPNMKYVKVKVNFSDRVFKAVSDICKTFNIRHPEELSLLKKPRDPTKKKKKKLDDQSEDEALELEGPLITPGSGSIYSSPGLYSKTMTPTYDAHDGSPLSPTSAWFGDSALSEGNPGILAVSQPITSPEILAKMFKPQALLDKAKINQGWLDSSRSLMEQDVKENEALLLRFKYYSFFDLNPKYDAIRINQLYEQAKWAILLEEIECTEEEMMMFAALQYHINKLSIMTSENHLNNSDKEVDEVDAALSDLEITLEGGKTSTILGDITSIPELADYIKVFKPKKLTLKGYKQYWCTFKDTSISCYKSKEESSGTPAHQMNLRGCEVTPDVNISGQKFNIKLLIPVAEGMNEIWLRCDNEKQYAHWMAACRLASKGKTMADSSYNLEVQNILSFLKMQHLNPDPQLIPEQITTDITPECLVSPRYLKKYKNKQITARILEAHQNVAQMSLIEAKMRFIQAWQSLPEFGITHFIARFQGGKKEELIGIAYNRLIRMDASTGDAIKTWRFSNMKQWNVNWEIKMVTVEFADEVRLSFICTEVDCKVVHEFIGGYIFLSTRAKDQNESLDEEMFYKLTSGWV
B3: ATP5IF1 (protein, UniProt Q9UII2 26-106, looked up)
ATPase inhibitor, …: GSDQSENVDRGAGSIREAGGAFGKREQAEEERYFRAQSREQLAALKKHHEEEIVHHKKEIERLQKEIERHKQKIKMLKHDD

Test system: HEK293T cells
Test: Label-free MS proteome of stable cell lines expressing HPV16 E6 or E6ΔPBM
Assay type: cell-based, human
Conditions: protein level, E6 cell line vs control
Description: HEK293T and HeLa cells were authenticated and found 100% identity to ATCC cat. CRL-3216 and ATCC cat. CCL-2, respectively. Jurkat and HaCat cell lines were not authenticated (original source: ECACC and Deutsches Krebsforschungszentrum DKFZ, respectively). HeLa cells were grown in DMEM (1 g/L glucose, Gibco) medium completed with 5% FCS and 40 μg/mL gentamicin, diluted every 3rd/4th day 1/10. HaCat cells were grown in DMEM (1 g/L glucose, Gibco) medium completed with 10% FCS and 40 μg/mL gentamicin, diluted every 3rd/4th day 1/4. Jurkat cells were grown in RPMI (Gibco) medium completed with 10% FCS and 40 μg/mL gentamicin, diluted every 3rd/4th day 1/12. All cells were kept at 37 °C and 5% CO2. For proteomics analyses cells were seeded on T-175 flasks. After they reached confluency, adherent cells were washed with PBS once and collected by scraping with ice-cold lysis buffer (Hepes-KOH pH 7.5 50 mM, NaCl 150 mM, Triton X-100 1%, complete EDTA-free protease inhibitor cocktail 1×, EDTA 2 mM, TCEP 5 mM, glycerol 10%). Jurkat cells were collected by 1000 g × centrifugation, washed once with PBS, then collected by 1000 g × 5 min centrifugation again and lysed in ice-cold lysis buffer. Lysates were sonicated 4 × 20 s with 1 s long pulses on ice, then incubated rotating at 4 °C for 30 min. Lysates were centrifuged at 12,000 rpm 4 °C for 20 min and supernatant was kept for further analysis. Concentration determination was carried out by standard Bradford method (Bio-Rad Protein Assay Dye Reagent #5000006) using BSA (MP BIomedicals #160069) as control on a Bio-Rad SmartSpec 3000 spectrophotometer instrument.
The samples were precipitated with TCA 20% overnight at 4 °C and centrifuged at 14,000 rpm for 10 min at 4 °C. The protein pellets were washed twice with 1 mL cold acetone and air dried. The protein extracts were solubilized in urea 8 M, reduced with 5 mM TCEP for 30 min, and alkylated with 10 mM iodoacetamide for 30 min in the dark. Double digestion was performed at 37 °C with 500 ng endoproteinase Lys-C for 4 h, followed by fourfold dilution and an overnight digestion with 500 ng trypsin. Peptide mixtures were then desalted on C18 spin-column and dried on Speed-Vacuum.
Samples were analyzed using an Ultimate 3000 nano-RSLC (Thermo Scientific, San Jose California) coupled in line with a LTQ-Orbitrap ELITE mass spectrometer via a nano-electrospray ionization source (Thermo Scientific, San Jose California). Peptide mixtures were injected in 0.1% TFA on a C18 Acclaim PepMap100 trap-column (75 µm ID × 2 cm, 3 µm, 100 Å, Thermo Fisher Scientific) for 3 min at 5 µL/min with 2% ACN, 0.1% FA in H2O and then separated on a C18 Accucore nano-column (75 µm ID × 50 cm, 2.6 µm, 150 Å, Thermo Fisher Scientific) at 220 nl/min and 38 °C with a 90 min linear gradient from 5% to 30% buffer B (A: 0.1% FA in H2O/B: 99% ACN, 0.1% FA in H2O), regeneration at 5% B. The mass spectrometer was operated in positive ionization mode, in data-dependent mode with survey scans from m/z 350–1500 acquired in the Orbitrap at a resolution of 120,000 at m/z 400. The 20 most intense peaks from survey scans were selected for further fragmentation in the Linear Ion Trap with an isolation window of 2.0 Da and were fragmented by CID with normalized collision energy of 35%. (TOP20CID method) Unassigned and single charged states were excluded from fragmentation. The Ion Target Value for the survey scans (in the Orbitrap) and the MS2 mode (in the Linear Ion Trap) were set to 1E6 and 5E3 respectively and the maximum injection time was set to 100 ms for both scan modes. Dynamic exclusion was set to 20 s after one repeat count with mass width at ±10 ppm.
Proteins were identified by database searching using SequestHT (Thermo Fisher Scientific) with Proteome Discoverer 2.4 software (PD2.4, Thermo Fisher Scientific) on human FASTA database downloaded from SwissProt (reviewed, release 2020_11_27, 20304 entries, https://www.uniprot.org/). […]

Row | Molecule | Difference log2 E6/Ctrl | Ratio E6/Ctrl
1 | B1 | 1.355 | 2.558
2 | B2 | 0.234 | 1.176
3 | B3 | 4.465 | 22.0916

Same assay, conditions: protein level, dPBM cell line vs E6 cell line

Row | Molecule | Difference log2 dPBM/E6 | Ratio dPBM/E6
4 | B1 | -3.496 | 0.08864
5 | B2 | -3.123 | 0.1148
6 | B3 | -4.258 | 0.05227

Same assay, conditions: protein level, dPBM cell line vs control

Row | Molecule | Difference log2 dPBM/Ctrl | Ratio dPBM/Ctrl
7 | B1 | -2.141 | 0.2267
8 | B2 | -2.889 | 0.135
9 | B3 | 0.2076 | 1.155
